Laboratory results reported in patent US12514920B1, “Respiratory syncytial virus mRNA vaccine, and preparation method therefor and use thereof” (Hangzhou Tianlong Pharmaceutical Co., Ltd., priority 2024, dated 2026).
Where a chain is given by its changes, count along the chain named.

B1: YK-RSV-037 (protein)
chain: QNITEEFYQSTCSAVSKGYLGALRTGWCTSVITIELSNIKENKCNGTDAKVKLIKQELDKYKNAVTDLQLLMQSTPATGSGSAIASGVCVSKVLHLEGEVNKIKSALLSTNKAVVSLSNGVSVLTFKVLDLKNYIDKQLLPILNKQSCSIPNIETVIEFQQKNNRLLEITREFSVNAGVTTPVSTYMLTNSELLSLINDMPITNDQKKLMSNNVQIVRQQSYSIMSIIKEEVLAYVVQLPLYGVIDTPCWKLHTSPLCTTNTKEGSNICLTRTDRGWYCDNAGSVSFFPQAETCKVQSNRVFCDTMNSRTLPSEVNLCNVDIFNPKYDCKIMTSKTDVSSSVITSLGAIVSCYGKTKCTASNKNRGIIKTFSNGCDYVSNKGVDTVSVGNTLYYVNKQEGQSLYVKGEPIINFYDPLVFPSDEFDASISQVNEKINQSLAFIRKSDELLHNVNAGKSTTNIMITTIIIVIIVILLSLIAVGLLLY
B2: YK-RSV-040 (protein)
chain: B1 chain with C28Y, T29C
B3: YK-RSV-045 (protein)
chain: B1 chain with C28Y, T75C, C89A, V236C
B4: YK-RSV-046 (protein)
chain: QNITEEFYQSTCSAVSKGYLGALRTGWYTSVITIELSNIKENKCNGTDAKVKLIKQELDKYKNAVTDLQLLMQSTPATGSGSFCGFLLGVGSAIASGVAVSKVLHLEGEVNKIKSALLSTNKAVVSLSNGVSVLTFKVLDLKNYIDKQLLPILNKQSCSIPNIETVIEFQQKNNRLLEITREFSVNAGVTTPVSTYMLTNSELLSLINDMPITNDQKKLMSNNVQIVRQQSYSIMSIIKEEVLAYVVQLPLYGVIDTPCWKLHTSPLCTTNTKEGSNICLTRCDRGWYCDNAGSVSFFPQAETCKVQSNRVFCDTMNSRTLPSEVNLCNVDIFNPKYDCKIMTSKTDVSSSVITSLGAIVSCYGKTKCTASNKNRGIIKTFSNGCDYVSNKGVDTVSVGNTLYYVNKQEGQSLYVKGEPIINFYDPLVFPSDEFDASISQVNEKINQSLAFIRKSDELLHNVNAGKSTTNIMITTIIIVIIVILLSLIAVGLLLY
B5: YK-RSV-051 (protein)
chain: B4 chain with C84L, F86C, C283T, T315C
B6: YK-RSV-052 (protein)
chain: B1 chain with C28Y, S82C, C89A, L241C
B7: YK-RSV-058 (protein)
chain: B1 chain with C28Y, C89A, S266C, G407C
B8: YK-RSV-059 (protein)
chain: B1 chain with C28Y, C89A, N261C, G407C
B9: YK-RSV-002 (protein)
chain: B1 chain with C28Y, T29H, A85C, C89A, S91C, L143V, S226C, Y394C, D422S

What follows are molecules tested on RSV pre-F antibody (3C12) (assay: not given). Conditions: high osmotic pressure 3000 mM, room temperature, 60 min; ELISA binding to 3C12.
Assay type: physicochemical
Outline: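 RSV F mRNA-vaccine mutants stress-treated: 4° C. for one week, 50° C. for 60 min, low or high osmotic pressure at room temperature for 60 min, acid or base at room temperature for 60 min. Binding to 3C12 (epitope Φ) then measured by ELISA against pre-F trimer standard, HRP anti-human IgG, OD 450/630 nm.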

Molecule	Stress resistance parameter, Osmotic pressure (mM) 3000
B1	0.21 ± 0.03
B2	0.61 ± 0.09
B3	0.46 ± 0.05
B4	0.41 ± 0.02
B5	0.44 ± 0.00
B6	0.30 ± 0.06
B7	0.50 ± 0.05
B8	0.44 ± 0.03
B9	0.44 ± 0.13

Same assay, conditions: incubation at 50° C. for 60 min; ELISA binding to 3C12

Molecule	Stress resistance parameter, Temperature (° C.) 50
B1	0.50 ± 0.06
B2	0.91 ± 0.14
B3	0.41 ± 0.03
B4	0.63 ± 0.03
B5	0.60 ± 0.08
B6	0.69 ± 0.09
B7	0.73 ± 0.09
B8	0.74 ± 0.07
B9	0.46 ± 0.06

Same assay, conditions: low osmotic pressure 10 mM, room temperature, 60 min; ELISA binding to 3C12

Molecule	Stress resistance parameter, Osmotic pressure (mM) 10
B1	0.54 ± 0.11
B2	0.75 ± 0.13
B3	0.57 ± 0.09
B4	0.46 ± 0.14
B5	0.51 ± 0.13
B6	0.88 ± 0.21
B7	0.60 ± 0.04
B8	0.49 ± 0.02
B9	0.84 ± 0.14

Same assay, conditions: pH 3.5, room temperature, 60 min; ELISA binding to 3C12

Molecule	Stress resistance parameter, pH 3.5
B1	0.68 ± 0.10
B2	0.93 ± 0.09
B3	0.47 ± 0.09
B4	0.83 ± 0.04
B5	0.69 ± 0.14
B6	0.80 ± 0.04
B7	0.72 ± 0.03
B8	0.73 ± 0.03
B9	0.65 ± 0.08

Same assay, conditions: pH 10, room temperature, 60 min; ELISA binding to 3C12

Molecule	Stress resistance parameter, pH 10
B1	1.24 ± 0.11
B2	1.00 ± 0.23
B3	0.97 ± 0.07
B4	1.03 ± 0.03
B5	1.00 ± 0.17
B6	1.22 ± 0.14
B7	0.81 ± 0.05
B8	0.82 ± 0.09
B9	0.97 ± 0.14

Same assay, conditions: storage at 4° C. for one week; ELISA binding to 3C12

Molecule	Stress resistance parameter, Temperature (° C.) 4
B1	0.27 ± 0.07
B2	0.38 ± 0.08
B3	0.29 ± 0.02
B4	0.24 ± 0.07
B5	0.33 ± 0.05
B6	0.42 ± 0.10
B7	0.36 ± 0.07
B8	0.52 ± 0.10
B9	0.61 ± 0.11

Each molecule was assayed on RSV pre-F antibody (3C12) (assay: Binding of epitope Φ of RSV F antigen mutants by flow cytometry). Conditions: flow cytometry; epitope Φ, antibody 3C12.
Outline: (§1)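 293T cells were transfected with mRNA-LNP (300 ng mRNA) encoding the RSV F mutants and harvested after 16 h. Cells were stained with fluorescent 3C12 (pre-F-specific epitope Φ) or 11A9 (epitope II, pre-F and post-F) for 2 h at 4 °C in the dark, then washed and read by flow cytometry on 1×10^4 cells per measurement.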

Molecule	RSV pre-F antibody (3C12) Epitope Φ (%) binding rate [%]
B1	79.0
B2	84.3
B3	78.3
B4	84.0
B5	76.8
B6	89.4
B7	81.2
B8	83.1
B9	88.0

Same assay, conditions: ratio of epitope Φ (3C12) to epitope II (11A9) binding rate

Molecule	Φ/II (%)
B1	90.9
B2	91.6
B3	91.0
B4	93.5
B5	88.2
B6	95.4
B7	91.5
B8	92.5
B9	94.1

These molecules were tested on RSV F antibody (11A9) (assay: Binding of epitope II of RSV F antigen mutants by flow cytometry). Conditions: epitope II, antibody 11A9.
Outline: as §1

Molecule	RSV F antibody (11A9) Epitope II (%) binding rate [%]
B1	86.9
B2	92.0
B3	86.0
B4	89.8
B5	87.1
B6	93.7
B7	88.7
B8	89.8
B9	93.5
